Measurements as given in PMC4742118, “The ON:OFF switch, σ1R-HINT1 protein, controls GPCR-NMDA receptor cross-regulation: Implications in neurological disorders” (Oncotarget, 2015).

B1: recombinant HINT1 protein (natural protein, mouse, UniProt P70349 1-126, looked up)
chain: MADEIAKAQVAQPGGDTIFGKIIRKEIPAKIIFEDDRCLAFHDISPQAPTHFLVIPKKHISQISVADDDDESLLGHLMIVGKKCAADLGLKRGYRMVVNEGADGGQSVYHIHLHVLGGRQMNWPPG
notes: HINT1, coding region of NM_008248, amplified from mouse brain RNA; also called PKCI/HINT1; source: E. coli BL21 (KRX), purified (GSTrap FF; when necessary cleaved with ProTEV and electroeluted)
B2: GST-MOR (domain or fragment, mus musculus, UniProt P42866 286-398, looked up)
chain: VAVFIVCWTPIHIYVIIKALITIPETTFQTVSWHFCIALGYTNSCLNPVLYAFLDENFKRCFREFCIPTSSTIEQQNSARIRQNTREHPSTANTVDRTNHQLENLEAETAPLP
notes: C-terminal region of mus musculus MOR1 (AB047546), residues 286-398; the methods speak of MOR Ct; also called GST-tagged MOR; MOR Ct; source: E. coli BL21 (KRX), purified (GSTrap FF); not shown: GST, N-terminal, kept

Legend:
Settings in all cases: both partners purified
[1] = target: T1, GST-σ1R (murine, UniProt O55242 1-223); assay: pull-down; HINT1 protomer 200 nM with GST fusion protein 100 nM in 50 mM Tris-HCl pH 7.4, 2.5 mM CaCl2, 0.2% CHAPS, 30 min RT; captured on glutathione Sepharose 4B; Western blot
T1 construct: murine full-length (1-223) σ1R, GenBank AF004927, cloned downstream of GST and a TEV protease site; also called GST-tagged σ1 receptor; source: E. coli BL21 (KRX), purified (GSTrap FF); not shown: GST, N-terminal, kept

[2] = target: B1; assay: pull-down; displacement assay: HINT1 200 nM preincubated with agarose-NR1 or agarose-MOR in 50 mM Tris-HCl pH 7.5, 2.5 mM CaCl2, 0.2% CHAPS at RT; free HINT1 removed; σ1R added (100 nM, 300 nM or 1 uM on NR1; 300 nM on MOR); Western blot of bound HINT1 and σ1R
[3] = target: T2, recombinant σ1R (murine, UniProt O55242 1-223); assay: pull-down; bait (GST-NR1 C0-C1-C2 or GST-MOR) covalently attached to NHS-activated Sepharose; σ1R 100 nM in 50 mM Tris-HCl pH 7.4, 0.2% CHAPS, 30 min RT; 0 mM CaCl2; Western blot
T2 construct: murine full-length (1-223) σ1R, GenBank AF004927; Used as prey; also called sigma 1 receptor; source: E. coli BL21 (KRX), purified (GSTrap FF; when necessary cleaved with ProTEV and electroeluted)
T2 sequence (O55242 whole entry): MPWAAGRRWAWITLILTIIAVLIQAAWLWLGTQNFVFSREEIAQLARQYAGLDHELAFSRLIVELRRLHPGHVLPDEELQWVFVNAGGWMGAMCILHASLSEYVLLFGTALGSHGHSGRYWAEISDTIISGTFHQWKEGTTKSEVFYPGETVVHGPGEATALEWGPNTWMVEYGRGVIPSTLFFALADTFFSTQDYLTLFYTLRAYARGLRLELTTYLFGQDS

T1 sequence (O55242 whole entry, the tested form may be a part): as the sequence (O55242 whole entry) above

Binder	binding result [1]	binding result [2]	binding result [3]
B1	binds		
B2		binds	binds
